Measured values from the supplement of paper PMC6757056.
± gives the standard deviation of the averaged measurements.

B1: library; a variant is named by its letters at N, in order (parent)
chain: GCUGUCACCGGAAUACCAGCAUCGUCUUGAUGCCCUUGGAAGUCCGGUCUGAUGAGUCCNNNNNGGACGAAACAGC

Legend:
theophylline [1] = variants of: B1; assay: FACS-Seq fitted mean relative fluorescence mCherry/BFP without ligand (log10 relative fluorescence); higher = higher reporter protein expression; settings: HEK293T, ligand present: no
How it was run: (§1)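 HEK293T libraries were lentivirally transduced with an mCherry reporter carrying the ribozyme switch and an EF1α-BFP marker, enriched, and incubated for 48 h with or without ligand before sorting into 6 bins by mCherry/BFP. Genomic DNA from each bin was PCR-amplified, barcoded and sequenced on MiSeq. Fluorescence is the fitted normal mean of the bin counts. The fit used log10(mCherry/BFP), and means were scaled to five spiked-in control ribozymes.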

theophylline [2] = variants of: B1; assay: normalized RNA/DNA level with ligand (relative to sTRSVctl = 100) (log10 (% of sTRSVctl)); higher = less ribozyme self-cleavage, higher mRNA level; settings: ligand concentration (+) RNA-Seq: 5 mM, HEK293T, reporter: mCherry (pCS4076), ligand present: yes
How it was run: (§2)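 Ribozyme switch library plasmids linked to reporters were introduced into HEK293T cells at 4 µg per 6-well well, with ligand, if any, added 1 h before. Total RNA was extracted with EDTA 72 h later, reverse-transcribed, amplified, barcoded and sequenced. RNA level was computed from RNA over DNA reads relative to a spiked-in non-cleaving sequence or the top sequences, then scaled and log-transformed. The top set was 25 sequences, values were ×100 and log10, and the cutoff was ≥100 DNA reads.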

theophylline [3] = variants of: B1; assay: normalized RNA/DNA level without ligand (relative to sTRSVctl = 100) (log10 (% of sTRSVctl)); higher = less ribozyme self-cleavage, higher mRNA level; settings: HEK293T, reporter: mCherry (pCS4076), ligand present: no
How it was run: as §2

theophylline [4] = variants of: B1; assay: FACS-Seq fitted mean relative fluorescence mCherry/BFP with ligand (log10 relative fluorescence); ligand concentration (+) FACS-Seq: 1 mM; higher = higher reporter protein expression; settings: HEK293T, ligand present: yes
How it was run: as §1

| Variant | FACS-Seq fitted mean (log10) (theophylline [1]) | normalized RNA/DNA level with ligand (log10) (theophylline [2]) | normalized RNA/DNA level without ligand (log10) (theophylline [3]) | FACS-Seq fitted mean (log10) (theophylline [4]) |
| --- | --- | --- | --- | --- |
| AAGUC | 0.771 ± 0.032 | 1.96 ± 0.045 | 1.91 ± 0.1 | 0.866 ± 0.079 |
| AAGUG | 0.678 ± 0.085 | 1.96 ± 0.04 | 1.79 ± 0.074 | 0.763 ± 0.076 |
| GCAUG | 0.8295 ± 0.0081 | 1.939 ± 0.013 | 1.79 ± 0.026 | 0.966 ± 0.067 |
| GCAUU | 0.42 ± 0.1 | 1.938 ± 0.0078 | 1.792 ± 0.0054 | 0.4217 ± 0.00082 |
| GAUAU | 0.781 ± 0.093 | 1.946 ± 0.0078 | 1.75 ± 0.039 | 0.8102 ± 0.0061 |
| CAGAA | 0.0186 ± 0.078 | 1.95 ± 0.054 | 1.2 ± 0.22 | 0.681 ± 0.037 |
| CAGAC | 0.2 ± 0.032 | 2.04 ± 0.028 | 1.9 ± 0.086 | 0.0728 ± 0.14 |
| CAGAU | 0.809 ± 0.1 | 2 ± 0.035 | 1.6 ± 0.25 | 1.05 ± 0.037 |
| AAUAA | -0.00162 ± 0.092 | 1.88 ± 0.051 | 1.33 ± 0.021 | 0.509 ± 0.039 |
| AAUAU | -0.0622 ± 0.051 | 1.99 ± 0.083 | 1.75 ± 0.024 | 0.253 ± 0.077 |
| AAUAG | 0.929 ± 0.015 | 1.965 ± 0.015 | 1.85 ± 0.039 | 0.894 ± 0.16 |
| AAUAC | 0.997 ± 0.065 | 1.95 ± 0.045 | 1.85 ± 0.084 | 1.061 ± 0.0058 |
| AAGGA | 0.338 ± 0.022 | 2 ± 0.025 | 1.43 ± 0.099 | 0.8561 ± 0.0071 |
| AAGGC | 0.518 ± 0.013 | 1.93 ± 0.046 | 1.89 ± 0.079 | 0.476 ± 0.023 |
| AAGGG | 0.3836 ± 0.0021 | 1.85 ± 0.028 | 1.75 ± 0.037 | 0.381 ± 0.037 |
| AAGGU | 0.228 ± 0.0068 | 1.94 ± 0.047 | 1.72 ± 0.044 | 0.445 ± 0.067 |
| ACCAA | 0.759 ± 0.043 | 2.02 ± 0.082 | 1.74 ± 0.069 | 0.832 ± 0.016 |
| ACCAC | 1.02 ± 0.038 | 2 ± 0.055 | 2.006 ± 0.014 | 0.984 ± 0.066 |
| GAGAA | 0.48 ± 0.017 | 1.91 ± 0.15 | 1.41 ± 0.11 | 0.7667 ± 0.00081 |
| GAGAU | 0.787 ± 0.038 | 1.97 ± 0.038 | 1.73 ± 0.074 | 0.958 ± 0.062 |
| CCACC | 0.788 ± 0.091 | 1.99 ± 0.087 | 1.97 ± 0.061 | 0.739 ± 0.01 |
| CCACU | 0.682 ± 0.012 | 2.01 ± 0.059 | 1.76 ± 0.16 | 0.818 ± 0.014 |
| CCACA | 0.241 ± 0.0081 | 1.97 ± 0.022 | 1.75 ± 0.096 | 0.47 ± 0.086 |
| AAUGU | 0.7078 ± 0.0026 | 1.99 ± 0.056 | 1.77 ± 0.23 | 0.788 ± 0.011 |

| Variant | FACS-Seq fitted mean (log10) (theophylline [1]) | normalized RNA/DNA level with ligand (log10) (theophylline [2]) | normalized RNA/DNA level without ligand (log10) (theophylline [3]) | FACS-Seq fitted mean (log10) (theophylline [4]) |
| --- | --- | --- | --- | --- |
| AAUGG | 0.773 ± 0.076 | 2.06 ± 0.078 | 1.73 ± 0.094 | 0.962 ± 0.016 |
| AAUGA | 0.467 ± 0.024 | 1.964 ± 0.0034 | 1.46 ± 0.08 | 0.691 ± 0.086 |
| AAUGC | 0.537 ± 0.0095 | 2 ± 0.06 | 1.89 ± 0.025 | 0.692 ± 0.11 |
| CAGUA | 0.206 ± 0.0074 | 1.95 ± 0.15 | 1.27 ± 0.084 | 0.675 ± 0.018 |
| CAGUC | 0.691 ± 0.085 | 1.94 ± 0.086 | 1.86 ± 0.14 | 0.68 ± 0.13 |
| CAGUU | 0.491 ± 0.036 | 2.06 ± 0.055 | 1.6287 ± 0.00046 | 0.76 ± 0.037 |
| UAGCG | 1.09 ± 0.18 | 1.94 ± 0.066 | 1.9 ± 0.019 | 1.08 ± 0.016 |
| UAGCA | 0.6175 ± 0.0054 | 1.95 ± 0.052 | 1.55 ± 0.091 | 0.757 ± 0.046 |
| UAGCU | 1.23 ± 0.19 | 2.01 ± 0.048 | 1.93 ± 0.068 | 1.14 ± 0.05 |
| CAUUU | 0.805 ± 0.079 | 2.1059 ± 0.00056 | 1.74 ± 0.12 | 0.945 ± 0.13 |
| CAUUA | 0.275 ± 0.06 | 1.851 ± 0.011 | 1.22 ± 0.14 | 0.761 ± 0.12 |
| AAGAA | 0.0676 ± 0.046 | 1.94 ± 0.04 | 1.36 ± 0.025 | 0.545 ± 0.015 |
| AAGAG | 0.563 ± 0.11 | 1.97 ± 0.099 | 1.67 ± 0.089 | 0.728 ± 0.02 |
| AAGAC | 0.968 ± 0.16 | 1.91 ± 0.06 | 1.86 ± 0.14 | 0.922 ± 0.12 |
| AAGAU | 0.919 ± 0.085 | 1.97 ± 0.06 | 1.69 ± 0.052 | 1.06 ± 0.11 |
| AAUCC | 0.844 ± 0.012 | 2.04 ± 0.052 | 1.95 ± 0.07 | 0.808 ± 0.05 |
| AAUCU | 0.634 ± 0.065 | 1.94 ± 0.026 | 1.87 ± 0.026 | 0.57 ± 0.049 |
| AAUCA | 0.1911 ± 0.00077 | 1.9026 ± 0.0018 | 1.7 ± 0.029 | 0.221 ± 0.08 |
| AAUCG | 0.941 ± 0.16 | 2.06 ± 0.06 | 1.87 ± 0.1 | 0.953 ± 0.04 |
| UCACU | 0.354 ± 0.029 | 2.003 ± 0.0094 | 1.85 ± 0.092 | 0.438 ± 0.015 |
| UCACC | -0.0671 ± 0.15 | 1.92 ± 0.022 | 1.93 ± 0.053 | 0.0211 ± 0.046 |
| UCACA | 0.565 ± 0.12 | 2 ± 0.027 | 1.48 ± 0.097 | 0.896 ± 0.07 |
| UAUAC | 0.747 ± 0.029 | 2.06 ± 0.027 | 1.98 ± 0.088 | 0.749 ± 0.0085 |
| UAUAG | 0.9651 ± 0.0015 | 1.95 ± 0.053 | 1.855 ± 0.015 | 0.896 ± 0.067 |

| Variant | FACS-Seq fitted mean (log10) (theophylline [1]) | normalized RNA/DNA level with ligand (log10) (theophylline [2]) | normalized RNA/DNA level without ligand (log10) (theophylline [3]) | FACS-Seq fitted mean (log10) (theophylline [4]) |
| --- | --- | --- | --- | --- |
| UAUAA | 0.194 ± 0.045 | 2.02 ± 0.052 | 1.47 ± 0.088 | 0.511 ± 0.038 |
| GAGUU | 0.55 ± 0.013 | 1.89 ± 0.025 | 1.6731 ± 0.00032 | 0.742 ± 0.063 |
| UCAAC | 0.851 ± 0.1 | 1.89 ± 0.03 | 1.79 ± 0.049 | 0.879 ± 0.062 |
| UCAAA | -0.0221 ± 0.095 | 1.97 ± 0.042 | 1.3 ± 0.091 | 0.459 ± 0.023 |
| UCAAU | 0.686 ± 0.07 | 2 ± 0.028 | 1.83 ± 0.095 | 0.789 ± 0.093 |
| UCAAG | 0.7373 ± 0.0072 | 2.034 ± 0.0095 | 1.79 ± 0.16 | 0.974 ± 0.053 |
| UAGAU | 0.687 ± 0.045 | 2.02 ± 0.036 | 1.8244 ± 0.0014 | 0.828 ± 0.09 |
| UAGAC | 0.814 ± 0.036 | 1.91 ± 0.03 | 1.91 ± 0.09 | 0.723 ± 0.008 |
| UAGAG | 0.823 ± 0.13 | 1.94 ± 0.063 | 1.73 ± 0.093 | 0.842 ± 0.013 |
| UAGAA | -0.0982 ± 0.13 | 1.91 ± 0.11 | 1.43 ± 0.016 | 0.448 ± 0.028 |
| GAUCU | 0.704 ± 0.15 | 1.98 ± 0.055 | 1.85 ± 0.03 | 0.81 ± 0.17 |
| GAUCG | 1.12 ± 0.081 | 1.9 ± 0.031 | 1.78 ± 0.05 | 1.17 ± 0.094 |
| UCAGU | 0.741 ± 0.036 | 2.011 ± 0.018 | 1.875 ± 0.018 | 0.752 ± 0.097 |
| UCAGA | 0.377 ± 0.081 | 1.96 ± 0.099 | 1.55 ± 0.13 | 0.6274 ± 0.0049 |
| GAUUG | 0.498 ± 0.059 | 1.98 ± 0.1 | 1.75 ± 0.12 | 0.711 ± 0.017 |
| GAUUU | 0.1728 ± 0.00021 | 2.05 ± 0.067 | 1.78 ± 0.12 | 0.28 ± 0.031 |
| UAGUA | 0.245 ± 0.011 | 1.87 ± 0.019 | 1.45 ± 0.074 | 0.503 ± 0.008 |
| UAGUC | 0.521 ± 0.015 | 1.925 ± 0.01 | 1.88 ± 0.067 | 0.4472 ± 0.0043 |
| GCACU | 1.01 ± 0.018 | 1.966 ± 0.019 | 1.86 ± 0.022 | 1 ± 0.083 |
| UCCAA | 0.973 ± 0.14 | 2.04 ± 0.078 | 1.84 ± 0.09 | 0.912 ± 0.053 |
| UCCAC | 0.712 ± 0.067 | 2.05 ± 0.04 | 1.95 ± 0.12 | 0.737 ± 0.036 |
| CAUGC | 0.705 ± 0.09 | 2.03 ± 0.085 | 1.98 ± 0.071 | 0.633 ± 0.01 |
| CAUGA | 0.56151 ± 0.00013 | 2.03 ± 0.064 | 1.69 ± 0.1 | 0.619 ± 0.12 |
| CAUGU | 0.628 ± 0.042 | 1.98 ± 0.033 | 1.96 ± 0.052 | 0.704 ± 0.062 |
